One molecule from patent US20100016556A1 (published 2010) can be followed below.

As usually defined, the Kd is the concentration at which binding is half-saturated. Low readings indicate higher affinity, high ones lower affinity.

The target in this experiment is T1, CD3 on Jurkat cells (human, UniProt P07766 23-207).
T1 construct: whole, on cells; the CD3 complex has several chains; also called T cells (Jurkat); J6 cells
The experiment in a line: binding to J6 cells; method not described.

T1 sequence (P07766 23-207): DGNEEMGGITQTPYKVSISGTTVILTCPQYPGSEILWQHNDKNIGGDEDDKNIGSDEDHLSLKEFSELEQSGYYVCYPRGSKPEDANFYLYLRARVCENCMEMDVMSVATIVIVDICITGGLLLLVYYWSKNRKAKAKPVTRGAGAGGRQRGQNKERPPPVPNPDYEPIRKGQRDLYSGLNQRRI

B1: BsF(ab')2 v1 (anti-p185HER2/anti-CD3 v1) (bispecific antibody)
chain 1: not shown
chain 2: not shown
chain 3: DIQMTQSPSSLSASVGDRVTITCRASQDIRNYLNWYQQKPGKAPKLLIYYTSRLESGVPSRFSGSGSGTDYTLTISSLQPEDFATYYCQQGNTLPWTFGQGTKVEIK
chain 4: EVQLVESGGGLVQPGGSLRLSCAASGYSFTGYTMNWVRQAPGKGLEWVALINPYKGVTTYADSVKGRFTISVDKSKNTAYLQMNSLRAEDTAVYYCARSGYYGDSDWYFDVWGQGTLVTVSS
modifications: hinge Cys thioether-linked through o-PDM to the other Fab' arm
Molecule B1 came in with a Kd of 140 nM.
